Molecular target: RNA polymerase II;RECQL5 1-620 D157A (human;human, UniProt P24928;P30876;P19387;O15514;P19388;P61218;P62487;P52434;P36954;P62875;P52435;P53 …, |D157A)
Experiment: cryo-EM

Sequence of RNA polymerase II;RECQL5 1-620 D157A (O94762 1-620 D157A, one chain of several): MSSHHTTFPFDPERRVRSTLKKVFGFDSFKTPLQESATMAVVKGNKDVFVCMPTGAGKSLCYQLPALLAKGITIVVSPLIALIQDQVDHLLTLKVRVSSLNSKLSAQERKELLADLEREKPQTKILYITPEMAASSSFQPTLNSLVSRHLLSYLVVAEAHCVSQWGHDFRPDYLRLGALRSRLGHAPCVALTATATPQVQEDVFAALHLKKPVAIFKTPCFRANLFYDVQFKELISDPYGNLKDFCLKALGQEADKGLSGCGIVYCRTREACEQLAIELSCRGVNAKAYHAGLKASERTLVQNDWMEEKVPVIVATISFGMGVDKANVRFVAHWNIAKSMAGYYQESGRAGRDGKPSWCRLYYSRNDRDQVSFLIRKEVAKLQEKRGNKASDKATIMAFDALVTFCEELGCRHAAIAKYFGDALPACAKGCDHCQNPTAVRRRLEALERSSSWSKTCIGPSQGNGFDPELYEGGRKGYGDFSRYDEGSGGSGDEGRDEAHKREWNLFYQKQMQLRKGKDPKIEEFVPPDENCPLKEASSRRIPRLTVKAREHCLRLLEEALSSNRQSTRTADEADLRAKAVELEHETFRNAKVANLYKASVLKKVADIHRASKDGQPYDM

B1: artificial transcription bubble (template DNA, nontemplate DNA, RNA) (mixed)
DNA 1: CTCAAGTACTTACGCCTGGTCATTACTA
DNA 2: TAGTAAACTAGTATTGAAAGTACTTGAGCTTAGACAGCATGTC
RNA: UAUAUGCAUAAAGACCAGGC
- binding result: binds
